According to publication PMC11633383, “Role of VapBC4 toxin-antitoxin system of Sulfolobus acidocaldarius in heat stress adaptation” (mBio, 2024):

Biological target: T1, VapC4 toxin (Saci_1813) with a C-terminal histidine tag (Sulfolobus acidocaldarius DSM639, UniProt Q4J7W2 1-140, FITC (Alexa-488) fluorescent probe, site not stated, F/P ratio approximately 0.5 (in the FRET assay only))
T1 construct: also called Saci VapC4; pAG153; not shown: His tag, C-terminal, kept
T1 sequence (looked up): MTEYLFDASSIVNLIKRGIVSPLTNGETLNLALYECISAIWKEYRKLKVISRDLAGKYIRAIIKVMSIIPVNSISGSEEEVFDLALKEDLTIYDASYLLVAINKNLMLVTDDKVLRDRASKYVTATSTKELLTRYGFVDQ
Test: FRET or BRET; FITC-labelled VapC4 (100 nM, donor) titrated with TRITC-labelled VapB4 (25-2,000 nM, acceptor); excitation 495 nm, FITC emission at 520 nm, 60°C; fit to a hyperbolic binding equation
Details: both partners purified

B1: VapB4 antitoxin (Saci_1812) with a C-terminal histidine tag (natural protein, Sulfolobus acidocaldarius DSM639, UniProt Q4J7W4 1-77, looked up)
chain: MDSSGYVTISAKVPRELKELMDKYGIKPGPVIRKALEEEVRRRAIQELEKELKDLKEKSQISDEDVARLIREDRESR
modifications: TRITC (Alexa-532) fluorescent probe, site not stated, F/P ratio approximately 0.5 (in the FRET assay only)
notes: Unlabelled in the RNase neutralisation assay, TRITC-labelled in FRET; also called pAG154; source: E. coli BL21(DE3)-RIL, purified (Ni2+-NTA, dialysis)
  Kd: 40 ± 2.2 nM
